In US11242370B2, “Neuregulin-4 compounds and methods of use” (Eli Lilly and Company, priority 2019, dated 2022):
Residue numbers refer to the chain shown, from its start. Numbers in names are those of the source. Marks after values point to notes of the source that are not given here.

Legend:
rats = experiment: Toxicology study in rats, cardiac tissue inspection; conditions: single SC injection of 30 mg/kg
rat HER2/HER3 = target: T1, rat HER2/HER3 (Rattus norvegicus, UniProt Q62799); experiment: Rat HER2/HER3 phospho-ERK 1/2 assay, purified proteins, CHO-K1 cells; format: cell-based; conditions: phospho-ERK1/2
T1 construct: expressed in transfected cells
Experimental: (§1) A cell based assay utilizing CHO-K1 cells overexpressing human or rat HER receptors is used to determine activity of NRG4 compounds. CHO-K1 cells (ATCC) are grown in DMEM-F12 3:1 with 5% FBS with 20 mM HEPES, 40 μg/mL L-Proline, lx antibiotics and were split 1:5 every 2-3 days with TripLE Express (Gibco). Cells are transfected with plasmid DNA encoding HER receptors in pairs (hHER2-3, hHER2-4, rHER2-3 and rHER2-4) with Fugene 6 (Promega) according to the manufacturer's instructions. […] Transfected cells are selected with Puromycin (12 ug/ml) and Hygromycin (1 mg/ml) for 3-4 weeks and clonal lines are obtained by limited dilution cloning into 96 well plates. Clonal lines are selected by appropriate gene expression of HER2, HER3 or HER4 by Taqman method. Lines with appropriate receptor expression are confirmed by NRG1 induced phospho-ERK 1/2 responses. Clones are grown up, harvested, aliquoted into cryovials and then frozen under liquid nitrogen for long-term storage.
A phospho-ERK1/2 activity assay is utilized with CHO-K1 cells overexpressing human or rat HER receptors to determine potencies and selectivity of purified NRG4 compounds. CHO-K1 cell lines expressing the human or rat HER receptors are cultured with selection medium (DMEM-F12 3:1 with 5% FBS with 20 mM HEPES, 40 μg/mL L-Proline, 1× antibiotics, 12 μg/mL puromycin, 1 mg/mL Hygromycin B). On Day −1 (the day before phospho-ERK1/2 assay), cells are washed once with PBS, detached with enzyme free cell dissociation solution (GIBCO cat #13151-014), and resuspended in plating medium (DMEM-F12 3:1 with 20 mM HEPES, lx antibiotics, 0.2% FBS). Cells are plated in a 96-well Poly-D-Lysine coated plate (BD cat #354640) at 10,000 cells per 0.1 mL per well. […] Then 7.5 μL donor beads are added and the plate is covered with aluminum foil and incubated at room temperature for 2 hours on plate shaker with 350 rpm agitation or at 4° C. for overnight (warm up plate at room temperature for 2 h before reading). Alpha signal data are obtained on an Envision instrument (Alpha Technology-compatible plate reader). […]

[1] = Plasma pharmacokinetics in monkeys (toxicology studies); conditions: cynomolgus monkey, in vivo, sc, 3 mg/kg
Experimental: (§2) Example 11 is administered in a single 3 mg/kg dose to male and female monkeys by SC bolus injection.

human HER2/HER4 = target: T2, human HER2/HER4 (Homo sapiens, UniProt Q15303); experiment: Human HER2/HER4 phospho-ERK 1/2 assay, purified proteins, CHO-K1 cells; format: cell-based
T2 construct: expressed in transfected cells
Experimental: as §1
(§3) A phospho-ERK1/2 activity assay is utilized with CHO-K1 cells overexpressing human or rat HER receptors to determine potencies and selectivity of purified NRG4 compounds. CHO-K1 cell lines expressing the human or rat HER receptors are cultured with selection medium (DMEM-F12 3:1 with 5% FBS with 20 mM HEPES, 40 μg/mL L-Proline, 1× antibiotics, 12 μg/mL puromycin, 1 mg/mL Hygromycin B). On Day −1 (the day before phospho-ERK1/2 assay), cells are washed once with PBS, detached with enzyme free cell dissociation solution (GIBCO cat #13151-014), and resuspended in plating medium (DMEM-F12 3:1 with 20 mM HEPES, lx antibiotics, 0.2% FBS). Cells are plated in a 96-well Poly-D-Lysine coated plate (BD cat #354640) at 10,000 cells per 0.1 mL per well. Cells are cultured in a tissue culture incubator at 37° C. 5% CO2 overnight. On Day 1 (the day of pERK1/2 assay), plates are incubated at room temperature for 30 min. The culture media are removed followed by addition of 504, ligand at various concentrations diluted in PBS-20 mM HEPES-0.005% BSA. Native human NRG1 and NRG4 peptides are purchased from Reprokine (Tampa, Fla.). The stimulation time is 30 min (except for hHER2-4 1H6 line in which 15 min is used for stimulation). At the end of stimulation, ligands are removed and 704, Lysis buffer (made according to manufacturer's recipe, Perkin Elmer cat #ALSU-PERK-A10K) is added. Plates are incubated at room temperature for 10 min on plate shaker with 350 rpm agitation, then on ice for 1 hour without shaking. 304, of cell lysis is transferred to a 96-well white Optiplate (Perkin Elmer cat #6002290) for phospho-ERK1/2 assay. Briefly 7.5 μL acceptor beads are added to 30 μL lysis in Optiplate. The plate is covered with aluminum foil and incubated at room temperature for 1 hour on plate shaker with 350 rpm agitation. Then 7.5 μL donor beads are added and the plate is covered with aluminum foil and incubated at room temperature for 2 hours on plate shaker with 350 rpm agitation or at 4° C. for overnight (warm up plate at room temperature for 2 h before reading). Alpha signal data are obtained on an Envision instrument (Alpha Technology-compatible plate reader). Donor beads and acceptor beads are made according to assay protocol. The data shown are generated with either the AlphaScreen SureFire p-ERK1/2 (Thr202/Tyr204) assay kit (Cat #TGRES50k) or the AlphaLISA® SureFire® Ultra™ p-ERK 1/2 (Thr202/Tyr204) assay kit (Perkin Elmer cat #ALSU-PERK-A10K). The activity of the NRG1 peptide was similar in both types of assays. Raw data obtained from the Envision instrument is imported into GraphPad Prism software (version 7). The EC50 value is generated by a variable slope-four parameter dose response curve. The % of maximal NRG1 activity data are generated by expressing the average maximal raw data for the NRG4 compound over the average maximal raw data for the native human NRG1 per plate and multiplying by 100. Data are provided below in Tables 7-9. N values reflect number of independent assays run. […]

rat HER2/HER4 = target: T3, rat HER2/HER4 (Rattus norvegicus, UniProt Q62956); experiment: Rat HER2/HER4 phospho-ERK 1/2 assay, purified proteins, CHO-K1 cells; format: cell-based
T3 construct: expressed in transfected cells
Experimental: as §1, §3

cynomolgus monkeys = experiment: Toxicology study in cynomolgus monkeys, cardiac tissue inspection; conditions: male and female monkeys, single 3 mg/kg SC bolus injection
Experimental: as §2

human HER2/HER3 = target: T4, human HER2/HER3 (Homo sapiens, UniProt P21860); experiment: Human HER2/HER3 phospho-ERK 1/2 assay, purified proteins, CHO-K1 cells; format: cell-based; conditions: purified proteins; phospho-ERK1/2
T4 construct: expressed in transfected cells
Experimental: as §1
as §3, with “assays.” for “assays. Raw data obtained from the Envision instrument is imported into GraphPad Prism software (version 7). The EC50 value is generated by a variable slope-four parameter dose response curve. The % of maximal NRG1 activity data are generated by expressing the average maximal raw data for the NRG4 compound over the average maximal raw data for the native human NRG1 per plate and multiplying by 100. Data are provided below in Tables 7-9. N values reflect number of independent assays run.”

[2] = Plasma pharmacokinetics in rats (toxicology studies); conditions: rat, in vivo, sc, 30 mg/kg
Experimental: as §2

[3] = system: rat model of heart failure with reduced ejection fraction (HFrEF); experiment: Rat MI model, Example 11 dose-response, echocardiography; format: in vivo
Experimental: A nonclinical efficacy pharmacology study is conducted in a rat model of heart failure with reduced ejection fraction (HFrEF) to identify dose-response relationship for Example 11.
Briefly, the rats are anesthetized and positively ventilated throughout the procedure. […] The left coronary artery is permanently ligated. The sham-operated animals undergo the same procedure except the silk suture is placed around the left coronary artery without being tied. All rats are individually housed in a temperature and humidity controlled room and maintained on a 12 hour light/dark cycle. Three weeks after surgery, rats undergo transthoracic echocardiography for determination of ejection fraction (EF %) and left ventricle dimensions (LVD) using a Vevo 2100 ultrasound system. Rats are randomized across treatment groups according to EF % and LVD.
Measurements of EF % and LVD are expressed as mean values±standard error (SE). Statistical analysis is performed with JMP® 13 software (SAS Institute, Inc.; Cary, N.C.) and Dunnett's Test is used for statistical comparisons across treatment groups. Statistical significance is accepted at P<0.05.
Two to three weeks after MI surgery, animals are allocated to treatment groups and treated with a single injection of vehicle (DPBS) or one of the 3 dose levels (0.3, 1, 3 mg/kg) of Example 11.

[4] = maximal signal relative to native human NRG1 per plate
[5] = purified proteins, phospho-ERK1/2

T3 sequence (Q62956 26-1308): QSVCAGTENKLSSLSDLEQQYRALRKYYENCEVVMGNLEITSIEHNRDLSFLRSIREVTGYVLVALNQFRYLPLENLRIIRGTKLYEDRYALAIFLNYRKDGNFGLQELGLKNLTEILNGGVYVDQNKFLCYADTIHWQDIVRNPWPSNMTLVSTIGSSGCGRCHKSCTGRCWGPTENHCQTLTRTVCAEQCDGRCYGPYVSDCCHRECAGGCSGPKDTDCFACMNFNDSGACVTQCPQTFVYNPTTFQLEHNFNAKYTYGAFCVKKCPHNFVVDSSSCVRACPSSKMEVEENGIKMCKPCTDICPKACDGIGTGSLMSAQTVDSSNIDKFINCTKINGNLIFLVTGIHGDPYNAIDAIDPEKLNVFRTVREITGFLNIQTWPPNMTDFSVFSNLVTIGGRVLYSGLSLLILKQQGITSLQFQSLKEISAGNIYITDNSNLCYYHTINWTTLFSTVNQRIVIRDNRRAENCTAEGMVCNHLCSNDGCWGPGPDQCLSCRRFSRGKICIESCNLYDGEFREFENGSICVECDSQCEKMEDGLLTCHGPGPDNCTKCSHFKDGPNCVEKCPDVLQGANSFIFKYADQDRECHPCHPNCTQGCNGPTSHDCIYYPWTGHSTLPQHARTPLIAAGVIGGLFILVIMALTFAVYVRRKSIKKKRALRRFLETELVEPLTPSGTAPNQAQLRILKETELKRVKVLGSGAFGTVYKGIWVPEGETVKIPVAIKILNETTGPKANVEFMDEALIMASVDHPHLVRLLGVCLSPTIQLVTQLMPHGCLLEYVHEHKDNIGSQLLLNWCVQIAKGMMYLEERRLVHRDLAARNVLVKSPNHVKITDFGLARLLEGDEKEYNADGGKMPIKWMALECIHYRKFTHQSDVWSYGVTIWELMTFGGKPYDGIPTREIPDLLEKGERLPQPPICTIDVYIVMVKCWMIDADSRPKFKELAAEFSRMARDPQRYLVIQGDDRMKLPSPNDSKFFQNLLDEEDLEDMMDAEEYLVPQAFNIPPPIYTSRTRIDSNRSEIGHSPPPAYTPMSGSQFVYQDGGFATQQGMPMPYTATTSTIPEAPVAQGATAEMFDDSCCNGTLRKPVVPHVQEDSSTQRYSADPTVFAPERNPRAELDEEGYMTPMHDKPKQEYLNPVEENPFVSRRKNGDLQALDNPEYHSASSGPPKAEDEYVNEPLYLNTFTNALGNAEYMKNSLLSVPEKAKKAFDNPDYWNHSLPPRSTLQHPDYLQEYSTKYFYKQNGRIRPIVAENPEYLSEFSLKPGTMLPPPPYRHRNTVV
T3 sequence (P06494 23-1257 partner): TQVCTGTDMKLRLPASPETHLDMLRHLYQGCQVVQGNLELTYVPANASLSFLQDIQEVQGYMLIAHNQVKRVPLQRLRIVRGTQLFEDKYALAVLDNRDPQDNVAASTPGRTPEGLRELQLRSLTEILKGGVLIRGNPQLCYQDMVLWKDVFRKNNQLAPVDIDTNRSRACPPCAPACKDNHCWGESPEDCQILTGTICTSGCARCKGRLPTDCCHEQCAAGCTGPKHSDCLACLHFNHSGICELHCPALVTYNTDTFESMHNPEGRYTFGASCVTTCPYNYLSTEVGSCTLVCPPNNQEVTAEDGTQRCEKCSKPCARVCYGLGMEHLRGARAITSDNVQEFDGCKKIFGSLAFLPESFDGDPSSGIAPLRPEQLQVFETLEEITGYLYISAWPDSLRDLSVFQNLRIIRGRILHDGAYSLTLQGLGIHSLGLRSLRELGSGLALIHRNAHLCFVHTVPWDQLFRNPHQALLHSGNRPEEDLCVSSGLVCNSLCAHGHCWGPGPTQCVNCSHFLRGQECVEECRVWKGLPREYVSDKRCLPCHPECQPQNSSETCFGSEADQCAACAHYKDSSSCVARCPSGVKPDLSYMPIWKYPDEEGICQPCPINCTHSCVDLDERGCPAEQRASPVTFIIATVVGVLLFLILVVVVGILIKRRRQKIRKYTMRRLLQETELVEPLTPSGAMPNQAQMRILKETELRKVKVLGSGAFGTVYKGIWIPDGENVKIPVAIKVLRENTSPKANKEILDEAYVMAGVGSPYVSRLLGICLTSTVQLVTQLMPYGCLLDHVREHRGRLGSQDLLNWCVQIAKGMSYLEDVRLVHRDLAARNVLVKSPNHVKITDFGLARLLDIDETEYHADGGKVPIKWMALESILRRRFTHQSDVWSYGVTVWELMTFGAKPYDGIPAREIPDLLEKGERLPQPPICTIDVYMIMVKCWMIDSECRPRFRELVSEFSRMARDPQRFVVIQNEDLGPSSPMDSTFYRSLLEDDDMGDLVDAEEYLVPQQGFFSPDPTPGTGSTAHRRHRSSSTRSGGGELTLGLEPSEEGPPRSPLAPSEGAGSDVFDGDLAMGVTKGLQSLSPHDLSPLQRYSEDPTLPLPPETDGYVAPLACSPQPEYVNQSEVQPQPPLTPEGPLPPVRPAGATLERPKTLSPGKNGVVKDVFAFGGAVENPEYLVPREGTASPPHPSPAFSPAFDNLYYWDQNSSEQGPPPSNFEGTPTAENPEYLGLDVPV
T1 sequence (Q62799 20-1339): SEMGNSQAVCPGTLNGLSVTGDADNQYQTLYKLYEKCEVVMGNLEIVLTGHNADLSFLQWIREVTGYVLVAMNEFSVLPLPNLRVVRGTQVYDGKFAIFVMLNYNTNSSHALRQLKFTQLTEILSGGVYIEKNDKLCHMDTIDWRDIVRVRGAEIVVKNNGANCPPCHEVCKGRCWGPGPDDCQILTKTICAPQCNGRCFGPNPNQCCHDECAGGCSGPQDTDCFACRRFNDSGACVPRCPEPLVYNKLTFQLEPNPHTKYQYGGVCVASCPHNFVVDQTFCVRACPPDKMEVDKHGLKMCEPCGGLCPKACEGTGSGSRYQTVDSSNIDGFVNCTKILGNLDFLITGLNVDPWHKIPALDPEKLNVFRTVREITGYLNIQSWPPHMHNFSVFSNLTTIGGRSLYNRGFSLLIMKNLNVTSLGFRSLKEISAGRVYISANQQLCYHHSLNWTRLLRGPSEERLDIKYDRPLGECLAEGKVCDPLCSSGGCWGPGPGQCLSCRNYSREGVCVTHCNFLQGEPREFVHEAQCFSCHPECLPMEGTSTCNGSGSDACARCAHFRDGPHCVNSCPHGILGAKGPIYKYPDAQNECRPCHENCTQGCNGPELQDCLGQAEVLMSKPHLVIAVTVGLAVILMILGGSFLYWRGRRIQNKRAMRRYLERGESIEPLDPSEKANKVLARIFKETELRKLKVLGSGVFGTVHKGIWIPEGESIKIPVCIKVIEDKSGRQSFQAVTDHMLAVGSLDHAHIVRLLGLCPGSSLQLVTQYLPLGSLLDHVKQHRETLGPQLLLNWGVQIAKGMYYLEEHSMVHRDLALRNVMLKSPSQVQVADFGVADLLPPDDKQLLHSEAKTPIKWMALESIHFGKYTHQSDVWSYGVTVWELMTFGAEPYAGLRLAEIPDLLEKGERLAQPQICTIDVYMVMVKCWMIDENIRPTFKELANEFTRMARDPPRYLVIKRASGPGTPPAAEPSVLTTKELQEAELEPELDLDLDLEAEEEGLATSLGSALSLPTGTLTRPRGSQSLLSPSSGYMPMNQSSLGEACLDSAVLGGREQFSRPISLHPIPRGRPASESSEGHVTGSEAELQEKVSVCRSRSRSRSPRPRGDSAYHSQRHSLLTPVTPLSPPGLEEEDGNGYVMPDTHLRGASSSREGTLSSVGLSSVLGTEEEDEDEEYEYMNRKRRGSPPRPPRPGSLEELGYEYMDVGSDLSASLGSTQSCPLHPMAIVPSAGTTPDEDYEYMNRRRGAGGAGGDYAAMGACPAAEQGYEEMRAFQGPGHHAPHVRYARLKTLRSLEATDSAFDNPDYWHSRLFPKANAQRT
T1 sequence (P06494 23-1257 partner): as the sequence (P06494 23-1257 partner) above

B1: Example 11: NRG4 D1G/V22Q/E44K, (GGGGS)3 linker, SEQ ID NO: 19, fused to IgG Fc dimer SEQ ID NO: 8 and 9 (protein)
chain 1: GGGGSGGGGSGGGGSGHEEPCGPSHKSFCLNGGLCYQIPTIPSPFCRCVENYTGARCEKVFL
chain 2: ECPPCPAPPVAGPSVFLFPPKPKDTLMASRTPEVTCVVVDVSHEDPEVQFNWYVDGVEVHNAKTKPREEQFNSTFRVVSVLTVVHQDWLNGKEYKCKVSNKGLPAPIEKTISKTKGQPREPQVYTLPPSREEMTKNQVSLWCLVKGFYPSDIAVEWESNGQPENNYKTTPPVLDSDGSFFLYSKLTVDKSRWQQGNVFSCSVMHEALHNAYTQKSLSLSPG
chain 3: B1 chain 2 with W141S, L143A, Y182V
inspections of tissue (cardiac toxicity) (rats): no evidence of cardiac degeneration and/or necroses
EC50 (rat HER2/HER3): > 1000 nM
time for detectable plasma concentrations to be cleared [1]: > 168 h
% Maximal NRG1 activity (human HER2/HER4; [4]): 79 ± 2 (N = 5) %
EC50 (human HER2/HER4; [5]): 0.55 ± 0.11 nM
% Maximal NRG1 activity (rat HER2/HER4; [4]): 96 ± 2 (N = 2) %
EC50 (rat HER2/HER4; [5]): 0.17 ± 0.06 nM
inspections of tissue (cardiac toxicity) (cynomolgus monkeys): cardiac degeneration and necrosis
EC50 (human HER2/HER3): > 1000 nM
plasma concentration [2]: undetectable at 96 hours
Ejection Fraction ([3]; 0.3 mg/kg single injection, 7 days after dosing): 50.1* %
Ejection Fraction ([3]; 0.3 mg/kg single injection, 14 days after dosing): 42.6%
Ejection Fraction ([3]; 0.3 mg/kg single injection, 21 days after dosing): 36.4%
Ejection Fraction ([3]; 0.3 mg/kg single injection, Baseline (before dosing)): 45.4%
Ejection Fraction ([3]; 1 mg/kg single injection, 7 days after dosing): 52.4* %
Ejection Fraction ([3]; 1 mg/kg single injection, 14 days after dosing): 42.2%
Ejection Fraction ([3]; 1 mg/kg single injection, 21 days after dosing): 39.7%
Ejection Fraction ([3]; 1 mg/kg single injection, Baseline (before dosing)): 46.6%
Ejection Fraction ([3]; 3 mg/kg single injection, 7 days after dosing): 54.7* %
Ejection Fraction ([3]; 3 mg/kg single injection, 14 days after dosing): 54.0* %
Ejection Fraction ([3]; 3 mg/kg single injection, 21 days after dosing): 39.6%
Ejection Fraction ([3]; 3 mg/kg single injection, Baseline (before dosing)): 45.8%
LVD dilation ([3]; 0.3, 1, 3 mg/kg single injection vs vehicle, course of the study (data not shown)): No differences in LVD dilation are observed across groups
